Reference: PMC9589210

Legend:
[1] = molecular target: microtubules polymerised from bovine brain tubulin (bovine (endogenous in brain)) (UniProt Q6B856); experiment: TIRF microscopy (fluorescence intensity of labeled Tau on microtubules); occupancy: 750 nM Alexa-647 Tau on dynamic microtubules grown from surface-held GMPCPP seeds with 5 μM tubulin, 1 mM GTP, TIRF assay buffer (BRB80, 10 mM DTT, oxygen scavenger), 37 °C; normalized average fluorescence intensity, seeds excluded
[2] = molecular target: microtubules polymerised from bovine brain tubulin (bovine (endogenous in brain)) (UniProt Q6B856); experiment: TIRF microscopy (single-molecule imaging); 750 nM unlabeled Tau spiked with 300 pM Alexa-647-labeled Tau on dynamic microtubules (5 μM tubulin, 10% Alexa-488) grown from surface-held GMPCPP seeds, TIRF assay buffer, 37 °C, 10 frames/s
[3] = molecular target: microtubules polymerised from bovine brain tubulin (bovine (endogenous in brain)) (UniProt Q6B856)
[4] = molecular target: WT-Tau, 3RS isoform, Alexa 488-labeled (construct for FCS) (UniProt P10636); experiment: fluorescence correlation spectroscopy (FCS); ~20 nM Alexa 488-labeled Tau, tubulin titrated 0.5-10 μM, nonpolymerizing conditions, BRB80 (80 mM Pipes, 1 mM EGTA, 1 mM MgCl2, pH 6.9), 20 °C, 5 min incubation; diffusion times normalised to that without tubulin and fit to a binding model
[5] = molecular target: R5L-Tau, 3RS isoform, Alexa 488-labeled (construct for FCS) (UniProt P10636); experiment: as above

| relative normalized fluorescence intensity of Tau on dynamic microtubules [1] | dwell time of diffusive events [2] | dwell time of static events [2] | percent static binding [2] | microtubule growth rate at the minus end, dynamic microtubules with 750 nM unlabeled Tau (TIRF) [3] | microtubule growth rate at the plus end, dynamic microtubules with 750 nM unlabeled Tau (TIRF) [3] | microtubule shrinkage rate at the minus end, dynamic microtubules with 750 nM unlabeled Tau (TIRF) [3] | microtubule shrinkage rate at the plus end, dynamic microtubules with 750 nM unlabeled Tau (TIRF) [3] | increase of the normalized diffusion time of Tau at saturation [4] | increase of the normalized diffusion time of Tau at saturation [5] | Substance |
| --- | --- | --- | --- | --- | --- | --- | --- | --- | --- | --- |
| 1 | 0.6 s | 0.7 s | 43% | 0.4 μm/min | 1 μm/min | 7.12 μm/min | 7.55 μm/min |  |  | WT-Tau, 3RS isoform (construct for TIRF microscopy), Alexa 647-labeled (from UniProt P10636-2 1-352) (natural protein) |
| 0.68 | 0.5 s | 0.7 s | 18% | 0.41 μm/min | 1.04 μm/min | 10.4 μm/min | 11 μm/min |  |  | R5L-Tau, 3RS isoform (construct for TIRF microscopy), Alexa 647-labeled (from UniProt P10636-2 1-352) (natural protein) |
|  |  |  |  |  |  |  |  | 50% | 50% | tubulin (free, soluble), purified from bovine brain (from UniProt Q6B856 1-445) (complex) |
